This is an account of results in the supplement of paper PMC10899765.

Settings in all cases: 20 nM; 72 h
Data set [1] relates to MCF10A. The data set is described as follows: percent viability (nuclei count relative to siNT); higher = more viable cells. The method, then:
(§1)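 After 72 h, cells were fixed and stained with Hoechst and anti-fibrillarin, and nucleoli per nucleus were counted with CellProfiler. Values are plate-adjusted percent effect for the one-nucleolus and 5+ nucleoli phenotypes, normalised to siNT (0%) and to the positive controls siNOL11 or siKIF11 (100%), as the mean of biological triplicates. Percent viability is the nuclei count relative to siNT.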

Data set [2] deals with MCF10A. In words: one-nucleolus phenotype percent effect (relative to siNT 0% and siNOL11 100%); higher = more cells with one nucleolus (ribosome biogenesis inhibition). As to the method:
as §1

Data set [3] concerns MCF10A. In words: 5+ nucleoli phenotype percent effect (relative to siNT 0% and siKIF11 100%); higher = more cells with five or more nucleoli. The method, then:
as §1

For the sequence GAGGGUCUUGGGAGGGAUGUGAC [hsa-miR-1182], in the data set on MCF10A [1], the percent viability is 104%. The “one-nucleolus phenotype percent effect” value in the data set on MCF10A [2] was -20.9%. Besides, the “5+ nucleoli phenotype percent effect” value with MCF10A [3] was 44.5%.
For “UGCAAAAGUAAUCACAGUUUUU [hsa-miR-548f-5p]” the same measures were 75.6%, -27.5% and 23.9%.
For CUGUAUGCCCUCACCGCUCA [hsa-miR-675-3p] the same measures were 37.8%, 0.624% and -14.5%.
Take GUGGGGCCAGGCGGUGG [hsa-miR-1227-5p]: in the data set with MCF10A [1], the percent viability is 78.5%. For the same sequence, in the data set with MCF10A [2], the “one-nucleolus phenotype percent effect” value is -31%. Moreover, in the data set on MCF10A [3], the “5+ nucleoli phenotype percent effect” value stood at 55.1%.
On the same counts, the results for “AGGAGGAUGGAGAGCUGGGCCAGA [hsa-miR-6894-5p]” are 28.1%, 22.2% and 6.67%.
For GGUGAGGCUAGCUGGUG [hsa-miR-4316] the same measures were 41.7%, 13.5% and -8.12%.
On the same counts, the results for AACAUAGAGGAAAUUCCACGU [hsa-miR-376c-3p] are 99.8%, -18.9% and 55.4%.
On to “CCCUGUGCCCGGCCCACUUCUG [hsa-miR-1914-5p]”, for which the percent viability in the data set on MCF10A [1] is 90.2%. The “one-nucleolus phenotype percent effect” value with MCF10A [2] was -13.8%. Besides, in the data set with MCF10A [3], the “5+ nucleoli phenotype percent effect” value is 1.43%.
Regarding “AAGCAAUACUGUUACCUGAAAU [hsa-miR-3942-5p]”, the percent viability in the data set on MCF10A [1] turned out to be 36.6%. In the data set with MCF10A [2], the “one-nucleolus phenotype percent effect” value is -6.02%. For the same sequence, in the data set on MCF10A [3], the “5+ nucleoli phenotype percent effect” value is 13.9%.
As for AUAUUACCAUUAGCUCAUCUUU [hsa-miR-556-3p], the percent viability with MCF10A [1] amounted to 46.5%. Also, in the data set with MCF10A [2], the “one-nucleolus phenotype percent effect” value was -7.76%. In the data set on MCF10A [3], the “5+ nucleoli phenotype percent effect” value is -10.1%.
On the same counts, the results for “UGCAUCACAGCCUUUGGCCCUAG [hsa-miR-7112-3p]” are 45.8%, -28% and 45.4%.
On the same counts, the results for “UUCGCCACUUCCCUCCCUGCAG [hsa-miR-6788-3p]” are 89.7%, -13.9% and 18%.
On the same counts, the results for GCGACCCAUACUUGGUUUCAG [hsa-miR-551b-3p] are 111%, -14.5% and 23.7%.
With “UUCUAGAUGAGAGAUAUAUAUA [hsa-miR-4777-5p]”, the percent viability in the data set with MCF10A [1] is 34.7%. Also, the “one-nucleolus phenotype percent effect” value with MCF10A [2] is 29.8%. In addition, the “5+ nucleoli phenotype percent effect” value in the data set on MCF10A [3] was -25.9%.
For “UCAAGGCCAGAGGUCCCACAGCA [hsa-miR-3922-5p]” the same measures were 30.9%, 6.44% and -12.7%.
For GUGAGGGACUGGGAUUUGUGG [hsa-miR-6834-5p] the same measures were 81.4%, -28.7% and 23.5%.
For “UUUGGACAGAAAACACGCAGGU [hsa-miR-4520b-3p]” the same measures were 87%, -21.6% and 50%.
With ACCUGAGGUUGUGCAUUUCUAA [hsa-miR-544b], the percent viability in the data set with MCF10A [1] turned out to be 45.3%. Besides, the “one-nucleolus phenotype percent effect” value with MCF10A [2] is 20.9%. The “5+ nucleoli phenotype percent effect” value in the data set on MCF10A [3] was -17.6%.
On the same counts, the results for CACCGACUCUGUCUCCUGCAG [hsa-miR-6510-3p] are 69.9%, 11.7% and -12.7%.
On the same counts, the results for UUCAGCAGGAACAGCU [hsa-miR-4291] are 45.7%, -4.14% and -7.69%.
On the same counts, the results for AGGGGCUGGCUUUCCUCUGGUC [hsa-miR-185-3p] are 22.6%, 49.9% and -3.46%.
Regarding GAACUCACCCUCUGCUCCCAG [hsa-miR-6750-3p], the percent viability in the data set on MCF10A [1] was 99%. Besides, the “one-nucleolus phenotype percent effect” value in the data set with MCF10A [2] is -8.73%. Moreover, the “5+ nucleoli phenotype percent effect” value with MCF10A [3] was 29.7%.
Regarding CCUGUGCUCCCAGGGCCUCGC [hsa-miR-5008-3p], the percent viability in the data set with MCF10A [1] worked out at 77.3%. Moreover, the “one-nucleolus phenotype percent effect” value with MCF10A [2] is -14.5%. Further, in the data set on MCF10A [3], the “5+ nucleoli phenotype percent effect” value is 24%.
As to UCAAUAAAUGUCUGUUGAAUU [hsa-miR-95-5p], the percent viability in the data set on MCF10A [1] came to 101%. Further, in the data set with MCF10A [2], the “one-nucleolus phenotype percent effect” value was -26.5%. Also, in the data set with MCF10A [3], the “5+ nucleoli phenotype percent effect” value came to 26.3%.
On the same counts, the results for “CAGGAGGCAGUGGGCGAGCAGG [hsa-miR-4695-5p]” are 54.7%, -5.49% and 14.2%.
On the same counts, the results for GACAGAGUGCCACUUACUGAA [hsa-miR-4797-5p] are 23.7%, 41.8% and -25.1%.
Turning to UUUCUAUGUUAGUUGGAAG [hsa-miR-7159-3p], the percent viability in the data set on MCF10A [1] worked out at 26.4%. The “one-nucleolus phenotype percent effect” value with MCF10A [2] is 5.4%. Besides, in the data set with MCF10A [3], the “5+ nucleoli phenotype percent effect” value turned out to be 0.357%.
Regarding AUCACAUUGCCAGGGAUUACC [hsa-miR-23b-3p], the percent viability in the data set with MCF10A [1] stood at 103%. Moreover, the “one-nucleolus phenotype percent effect” value with MCF10A [2] was 0.34%. The “5+ nucleoli phenotype percent effect” value with MCF10A [3] was -9.04%.
For ACUCCAGUUUUAGUUCUCUUG [hsa-miR-3925-3p] the same measures were 63.4%, -22.1% and 38%.
With AAAAGUAAUUGUGGAUUUUGCU [hsa-miR-548ab], in the data set with MCF10A [1], the percent viability came out at 67.8%. In addition, the “one-nucleolus phenotype percent effect” value with MCF10A [2] is -19.3%. In the data set with MCF10A [3], the “5+ nucleoli phenotype percent effect” value was 30.5%.
Turning to “CAAAACCGCAGUAACUUUUGU [hsa-miR-548at-3p]”, the percent viability in the data set with MCF10A [1] is 33%. The “one-nucleolus phenotype percent effect” value in the data set on MCF10A [2] came out at 37.5%. Moreover, the “5+ nucleoli phenotype percent effect” value in the data set with MCF10A [3] was -23.4%.
For CAGCAGUGCGCAGGGCUG [hsa-miR-4519] the same measures were 27.2%, 8.95% and 8.89%.
With CCCAUGCCUCCUGCCGCGGUC [hsa-miR-6872-3p], in the data set on MCF10A [1], the percent viability turned out to be 48%. For the same sequence, the “one-nucleolus phenotype percent effect” value in the data set on MCF10A [2] was found to be 17.4%. The “5+ nucleoli phenotype percent effect” value with MCF10A [3] was -8.71%.
With AUGCCUCCCCCGGCCCCGCAG [hsa-miR-6836-3p], the percent viability in the data set on MCF10A [1] came out at 41.9%. The “one-nucleolus phenotype percent effect” value in the data set on MCF10A [2] was -8.85%. In the data set with MCF10A [3], the “5+ nucleoli phenotype percent effect” value is -0.9%.
For “CAGCACCCUGUGGCUCCCACAG [hsa-miR-6871-3p]” the same measures were 50.1%, -5.35% and 26.8%.
On the same counts, the results for “CCCCGGGAACGUCGAGACUGGAGC [hsa-miR-1247-3p]” are 17.1%, 41.2% and -15.3%.
